Usually EC50 (read off the curve) stands for the concentration that produces a half-maximal response. By koff is commonly meant a measure of how fast the partners let go of each other. A word on the kon: it is the rate constant with which the complex forms.

Positions count from the first letter of the chain named. Names may count otherwise. Where two headings read alike, the source gives them in different places.

Assay [1] has as its target T1, human CD137-human Fc fusion protein (human, UniProt Q07011 24-186).
T1 construct: not shown: human IgG1 Fc of the pFUSE-hIgG1-Fc1 vector (InvivoGen, pfuse-hg1fc1)
Briefly: ELISA of the purified antibody on coated plates. Background: ELISA stands for enzyme-linked immunosorbent assay.

Assay [2] deals with T2, monkey CD137-human Fc fusion protein (monkey; human, UniProt Q07011 24-186).
T2 construct: not shown: human IgG1 Fc of the pFUSE-hIgG1-Fc1 vector (InvivoGen, pfuse-hg1fc1)
T2 chain: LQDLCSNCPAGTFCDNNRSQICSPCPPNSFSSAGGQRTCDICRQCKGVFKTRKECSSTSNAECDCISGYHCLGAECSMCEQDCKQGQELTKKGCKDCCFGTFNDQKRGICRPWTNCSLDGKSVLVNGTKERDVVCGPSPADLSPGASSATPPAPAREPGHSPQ
Briefly: ELISA of the purified antibody on coated plates.

Assay [3] deals with T3, human CD137-His tag protein (R&D Systems, 9220-4B) (human, UniProt Q07011 24-186).
T3 construct: Bought protein; not shown: His tag of the bought protein
Briefly: ELISA, human CD137-His tag protein immobilized on the plate, anti-human IgG Fc-HRP, A450-A570.

In assay [4] the target is T3, human CD137-His tag protein (R&D …). Described as above. The source holds these as a separate data set.
Assay [5] has as its target T4, human CLDN4 expressed on CHO-K1 cells (human, UniProt O14493 1-209).
T4 construct: whole, on cells; also called human CLDN4 expressing CHO-K1
T4 sequence (looked up): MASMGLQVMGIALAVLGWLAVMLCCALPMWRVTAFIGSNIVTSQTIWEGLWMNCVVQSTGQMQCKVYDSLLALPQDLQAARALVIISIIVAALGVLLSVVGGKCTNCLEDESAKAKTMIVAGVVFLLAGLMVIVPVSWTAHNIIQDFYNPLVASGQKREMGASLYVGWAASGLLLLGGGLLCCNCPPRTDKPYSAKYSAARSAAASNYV
As to the kind of experiment: flow cytometry on human CLDN4 expressing CHO-K1, apparent KD. A general note: In flow cytometry, cells or beads pass a laser one at a time.

Assay [6] has as its target T3, human CD137-His tag protein (R&D …). As to the kind of experiment: ELISA, human CD137-His tag protein immobilized on the plate, anti-human IgG Fc-HRP, A450-A570. The source holds these as a separate data set.
Assay [7] has as its target T5, monkey CD137-His tag-3×FLAG tag fusion protein (monkey).
T5 construct: Residues 1-183 are the encoded extracellular region as stated; also called Monkey CD137-His-3 × FLAG
T5 chain: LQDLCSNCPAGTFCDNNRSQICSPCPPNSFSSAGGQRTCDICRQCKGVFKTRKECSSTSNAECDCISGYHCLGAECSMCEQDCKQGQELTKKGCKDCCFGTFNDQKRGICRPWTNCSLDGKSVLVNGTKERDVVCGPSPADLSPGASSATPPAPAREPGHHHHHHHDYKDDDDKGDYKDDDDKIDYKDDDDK
As to the kind of experiment: SPR, Biacore T200, antibody captured on Protein A chip, CD137 as analyte.

In assay [8] the target is T3, human CD137-His tag protein (R&D …). Described as above.

B1: anti-CD137 antibody 3-34 (antibody, V domains shown)
VH: QVQLQQSEAELVRPGASVKISCKAFGYTFTNHHINWVKQRPGQGLDWIGYINPYNDYTTFNRKFKDKATLTVHKSSSTAYMELSGLTSDDSAVYYCARTWGHWYFDLWGRGTVVTVSS
VL: EIVMTQSPATLSVSPGERATLSCRASQSVSSNLAWYQQKPGQAPRLLIYDSSTRATGIPARFSGSGSGTDFTLTISSLQSEDFAVYYCQQYNNWPPWTFGQGTKVEIKR
notes: Purified from a hybridoma derived from a VelocImmune mouse (human variable, mouse constant regions)
Consider B1, for which the binding result in assay [1] and in assay [2] was “binds” throughout.

B2: anti-CD137 antibody A2-48 (antibody, V domains shown)
VH: QVQLQESGPGLVKPSETLSLTCTVSGGSISSYYWSWIRQPPGKGLEWIGYIYYSGYTNYNPSLKSRVNISVDTSQNQFSLKLNSLTAADTAVYYCARTHSYYYGMDVWGQGTTVTVSS
VL: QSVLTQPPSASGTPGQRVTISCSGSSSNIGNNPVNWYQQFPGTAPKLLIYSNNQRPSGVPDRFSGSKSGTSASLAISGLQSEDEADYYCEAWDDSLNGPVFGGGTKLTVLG
notes: Purified from a hybridoma derived from an AlivaMab mouse
Take B2: the binding result in assay [1] and in assay [2] was “binds” each time.

B3: anti-CD137 antibody A2-32 (antibody, V domains shown)
VH: B2 VH with S31G, Y56F, N68T, Q75K, N83S, L85V, A96T, T98D, Y101H, G104Y
VL: not shown
notes: as for B2
In the case of B3, the binding result in assay [1] and in assay [2] was “binds” throughout.

B4: anti-CLDN4 (hKM3900)/anti-CD137 scFv bispecific antibody hKM3900_tA2-32LH_S (bispecific antibody)
heavy (part 1 of 2): EVQLVQSGAEVKKPGASVKISCKASGYTFTDYYMNWVRQAPGQGLEWMGDVVPNNGVPTYNQKFKGRVTITADKSTSTAYMELRSLRSEDTAVYYCARPHYYYAGRSGAMDYWGQGTLVTVSS
heavy (part 2 of 2): QSVLTQPPSASGTPGQRVTISCSGSSSNIGSNTVNWYQQFPGTAPKLLIYSNNQRPSGVPDRFSGSKSGTSASLAISGLQSEDEADYYCAGWDDSLNGPVFGGGTKLTVLGGGGGSGGGGSGGGGSGGGGSQVQLQESGPGLVKPSETLSLTCTVSGGSISGYYWSWIRQPPGKGLEWIGYIYYSGFTNYNPSLKSRVTISVDTSKNQFSLKLSSVTAADTAVYYCTRDHSHYYYMDVWGQGTTVTVSS
light: DIQLTQSPSSLSASVGDRVTITCTASSTVSSTYLHWYQQKPGKAPKLLIYSTSNLASGVPSRFSGSGSGTDYTLTISSLQPEDFATYYCHQYHRSPPTFGQGTKLEIKRTVAAPSVFIFPPSDEQLKSGTASVVCLLNNFYPREAKVQWKVDNALQSGNSQESVTEQDSKDSTYSLSSTLTLSKADYEKHKVYACEVTHQGLSSPVTKSFNRGEC
notes: scFv at the heavy chain C-terminus; not shown: human IgG1 heavy chain constant region; mutation positions by EU index; GS linker
As to B4, in assay [3], the “EC50 (read off the curve)” value was around 10 ng/mL.

B5: anti-CLDN4 (hKM3900)/anti-CD137 scFv bispecific antibody hKM3900_3-34-j6_S (bispecific antibody)
heavy (part 1 of 2): B4 heavy (part 1 of 2)
heavy (part 2 of 2): EVQLLESGGGLVQPGESLRLSCKAFGYTFTNHHINWVRQAPGKCLEWVGYINPYNDYTTFNDKFKDRFTLSVDKSKSTAYLQMNSLRAEDTAVYYCARTWGHWYFDLWGQGTLVTVSSGGGGSGGGGSGGGGSNIQMTQSPSSLSASVGDRVTITCRASQSVSSNLAWYQQKPGKAPKLLIYDSSTRATGVPSRFSGSGSGTDFTLTISSLQPEDFATYYCQQYNNWPPWTFGCGTKLEIKR
light: B4 light
notes: scFv at the heavy chain C-terminus; Fc mutation P331S with L234A and L235A; not shown: human IgG1 heavy chain constant region; mutation positions by EU index; GS linker
As for B5, the half-maximal effective concentration (EC50 (read off the curve)) in assay [3] was around 10 ng/mL.

B6: anti-CLDN4 (hKM3900)/anti-CD137 scFv bispecific antibody hKM3900_tA2-73 (bispecific antibody)
heavy (part 1 of 2): B4 heavy (part 1 of 2)
heavy (part 2 of 2): QVQLQESGPGLVKPSETLSLTCTVSGGSISSYYWTWIRQPPGKCLELVGYIYYSGYTSYNPSLKSRVTISIDTSKNQFSLQLNSVTAADTAVYFCARDDYGGNGYYGVDVWGQGTTVTVSSGGGGSGGGGSGGGGSQSVLTQPPSASGTPGQRVTISCSGSSSNIGNNPVNWYRQLPGTAPKLLIYSNNQRPSGVPDRFSGSKSGTSASLAISGLQSEDEADYYCAAWDDSLNGWVFGCGTKLTVLG
light: B4 light
notes: as for B4
As for B6, in assay [4], the “EC50 (read off the curve)” value is around 10 ng/mL.

B7: anti-CLDN4 (hKM3900)/anti-CD137 scFv bispecific antibody hKM3900_tA2-32LH (bispecific antibody, human IgG1, kappa, L234A L235A)
heavy: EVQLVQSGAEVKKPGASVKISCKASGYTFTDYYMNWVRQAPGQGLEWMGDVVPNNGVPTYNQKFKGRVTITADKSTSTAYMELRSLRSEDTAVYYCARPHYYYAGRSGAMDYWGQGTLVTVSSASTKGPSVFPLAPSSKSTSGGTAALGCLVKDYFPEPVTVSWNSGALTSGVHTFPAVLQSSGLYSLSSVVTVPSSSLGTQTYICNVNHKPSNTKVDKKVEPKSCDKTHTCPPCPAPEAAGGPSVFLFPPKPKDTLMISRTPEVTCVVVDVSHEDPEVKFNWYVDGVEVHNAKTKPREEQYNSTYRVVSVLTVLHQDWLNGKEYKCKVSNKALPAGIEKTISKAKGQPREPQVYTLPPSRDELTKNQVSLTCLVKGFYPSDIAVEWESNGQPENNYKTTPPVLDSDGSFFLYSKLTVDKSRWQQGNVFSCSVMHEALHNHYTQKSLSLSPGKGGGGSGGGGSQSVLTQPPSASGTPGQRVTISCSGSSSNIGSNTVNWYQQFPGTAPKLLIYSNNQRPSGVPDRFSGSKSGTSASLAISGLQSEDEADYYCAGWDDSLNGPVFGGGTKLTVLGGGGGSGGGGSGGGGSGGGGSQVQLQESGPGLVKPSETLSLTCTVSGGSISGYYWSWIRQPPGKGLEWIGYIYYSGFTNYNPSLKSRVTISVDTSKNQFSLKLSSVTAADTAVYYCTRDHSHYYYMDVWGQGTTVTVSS
light: B4 light
notes: The heavy chain entry holds the hKM3900 heavy chain (L234A, L235A, P331G), the linker and the tA2-32LH scFv
With B7, the Kd in assay [5] worked out at 10.8 nM; in assay [7], 6.68 nM; in assay [8], 5.84 nM. For the same molecule, the “EC50 (read off the curve)” value in assay [6] is around 8 ng/mL; in assay [4] it was around 10 ng/mL. Also, the results for the koff in assay [7] and in assay [8] were 0.00192 s⁻¹ and 0.00219 s⁻¹, respectively. Further, the on-rate (kon) in assay [7] is 288000 M⁻¹ s⁻¹; in assay [8] it was 374000 M⁻¹ s⁻¹.

B8: anti-CLDN4 (hKM3900)/anti-CD137 scFv bispecific antibody hKM3900_tA2-32_S (bispecific antibody)
heavy (part 1 of 2): B4 heavy (part 1 of 2)
heavy (part 2 of 2): QVQLQESGPGLVKPSETLSLTCTVSGGSISGYYWSWIRQPPGKCLEWIGYIYYSGFTNYNPSLKSRVTISVDTSKNQFSLKLSSVTAADTAVYYCTRDHSHYYYMDVWGQGTTVTVSSGGGGSGGGGSGGGGSQSVLTQPPSASGTPGQRVTISCSGSSSNIGSNTVNWYQQFPGTAPKLLIYSNNQRPSGVPDRFSGSKSGTSASLAISGLQSEDEADYYCAGWDDSLNGPVFGCGTKLTVLG
light: B4 light
notes: as for B4
B8: in assay [3], the “EC50 (read off the curve)” value is around 10 ng/mL.

B9: anti-CLDN4 (hKM3900)/anti-CD137 scFv bispecific antibody hKM3900_tA2-48 (bispecific antibody)
heavy (part 1 of 2): B4 heavy (part 1 of 2)
heavy (part 2 of 2): QVQLQESGPGLVKPSETLSLTCTVSGGSISSYYWSWIRQPPGKCLEWIGYIYYSGYTNYNPSLKSRVNISVDTSQNQFSLKLNSLTAADTAVYYCARTHSYYYGMDVWGQGTTVTVSSGGGGSGGGGSGGGGSQSVLTQPPSASGTPGQRVTISCSGSSSNIGNNPVNWYQQFPGTAPKLLIYSNNQRPSGVPDRFSGSKSGTSASLAISGLQSEDEADYYCEAWDDSLNGPVFGCGTKLTVLG
light: B4 light
notes: as for B4
B9: the “EC50 (read off the curve)” value in assay [4] is around 10 ng/mL.

B10: anti-CLDN4 (hKM3900)/anti-CD137 scFv bispecific antibody hKM3900_tA2-48_S (bispecific antibody)
heavy (part 1 of 2): B4 heavy (part 1 of 2)
heavy (part 2 of 2): B9 heavy (part 2 of 2)
light: B4 light
notes: as for B4
Turning to B10, in assay [3], the 50% effective concentration (EC50 (read off the curve)) is around 10 ng/mL.

B11: humanized anti-CLDN4 (hKM3900) antibody (antibody, V domains shown)
VH: B4 heavy (part 1 of 2)
VL: DIQLTQSPSSLSASVGDRVTITCTASSTVSSTYLHWYQQKPGKAPKLLIYSTSNLASGVPSRFSGSGSGTDYTLTISSLQPEDFATYYCHQYHRSPPTFGQGTKLEIKR
In the case of B11, the Kd in assay [5] stood at 10.8 nM. In addition, the binding result in assay [6] was “no binding (tested: 1000 ng/mL)”.

B12: anti-CLDN4 (hKM3900)/anti-CD137 scFv bispecific antibody hKM3900_tA2-32 (bispecific antibody)
heavy (part 1 of 2): B4 heavy (part 1 of 2)
heavy (part 2 of 2): B8 heavy (part 2 of 2)
light: B4 light
notes: as for B4
With B12, in assay [4], the 50% effective concentration (EC50 (read off the curve)) is around 10 ng/mL.

B13: anti-CLDN4 (hKM3900)/anti-CD137 scFv bispecific antibody hKM3900_tA2-73_S (bispecific antibody)
heavy (part 1 of 2): B4 heavy (part 1 of 2)
heavy (part 2 of 2): B6 heavy (part 2 of 2)
light: B4 light
notes: as for B4
Regarding B13, the “EC50 (read off the curve)” value in assay [3] is around 10 ng/mL.

B14: anti-CD137 antibody A2-73 (antibody, V domains shown)
VH: QVQLQESGPGLVKPSETLSLTCTVSGGSISSYYWTWIRQPPGKGLELVGYIYYSGYTSYNPSLKSRVTISIDTSKNQFSLQLNSVTAADTAVYFCARDDYGGNGYYGVDVWGQGTTVTVSS
VL: not shown
notes: as for B2
With B14, the binding result in assay [1] and in assay [2] was “binds” throughout.

For the origin of these results see patent publication US20250154272A1 (Astellas, published 2025).
